From patent publication KR20200067522A (dated 2020)

Assays:
CRM 197 의 A 단편(21kDa) = target: T1, CRM 197 의 A 단편(21kDa) (Corynebacterium diphtheriae C7 (β197) …, UniProt P00588 33-225); test: western blot of trypsin/DTT-cleaved CRM197
T1 construct: domain: A 단편(21kDa); Band on a reducing SDS-PAGE / western blot after trypsin digestion

[1] = target: T2, CRM 197 (Cross-reactive material 197) (Corynebacterium diphtheriae C7 (β197) …, UniProt P00588 33-567); test: BLI (Octet Red), CRM197 in two-fold dilutions of 50 to 3.13 nM
T2 construct: mature; Purified to more than 95% purity from the fermentation supernatant

B1: 단일클론항체 3F9 (인간 IgG로 전환) (antibody, V domains shown)
VH: EVQLVESGGGLVQPGGSLRLSCAASGFTFSDYAMSWVRQAPGKGLEWVSAISSSSGNKYYADSVKGRFTISRDNSKNTLYLQMNSLRAEDTAVYYCAKLGVRETLSWYFDLWGQGTLVTVSS
VL: DIQMTQSPSSLSASVGDRVTITCRASQSISNYLNWYQQKPGKAPKLLIYAASRLQSGVPSRFSGSGSGTDFTLTISSLQPEDFATYYCQQSYSFPWTFGQGTKVEIK
notes: Human IgG made from a Fab of a human synthetic Fab library; kappa light chain is only implied by the anti-human kappa ELISA
CRM 197 의 A 단편(21kDa)
  binding result: no binding
[1]
  Kd: 4.45 nM
